One molecule from PMC5973619 can be followed below.

The target in the assay is T1, Sun2 (human (endogenous in HeLa and RPE-1)), Q9UH99.
T1 chain: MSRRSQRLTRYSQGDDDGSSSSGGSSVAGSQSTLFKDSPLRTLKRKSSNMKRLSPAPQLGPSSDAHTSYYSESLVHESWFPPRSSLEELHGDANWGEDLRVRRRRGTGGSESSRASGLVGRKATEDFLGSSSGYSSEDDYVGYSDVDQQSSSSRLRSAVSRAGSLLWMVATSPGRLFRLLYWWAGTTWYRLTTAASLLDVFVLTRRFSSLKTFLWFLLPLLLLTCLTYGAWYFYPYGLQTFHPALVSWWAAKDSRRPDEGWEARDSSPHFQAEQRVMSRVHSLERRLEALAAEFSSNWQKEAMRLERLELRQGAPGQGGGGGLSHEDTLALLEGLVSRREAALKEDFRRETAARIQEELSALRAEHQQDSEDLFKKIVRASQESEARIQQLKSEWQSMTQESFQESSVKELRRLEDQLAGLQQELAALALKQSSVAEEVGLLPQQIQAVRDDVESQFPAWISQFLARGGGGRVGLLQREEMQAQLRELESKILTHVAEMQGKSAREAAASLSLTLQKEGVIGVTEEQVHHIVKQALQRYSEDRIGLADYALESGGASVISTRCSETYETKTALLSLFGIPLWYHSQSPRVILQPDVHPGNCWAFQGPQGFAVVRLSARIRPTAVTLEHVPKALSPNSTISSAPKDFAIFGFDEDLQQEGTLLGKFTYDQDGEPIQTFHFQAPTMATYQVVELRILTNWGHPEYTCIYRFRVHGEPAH
The assay is described as follows: cross-linking; HeLa cells in PBS containing .5% formaldehyde for 10min room temperature before lysis; reducing SDS-PAGE and blot for Sun1 and Sun2. Conditions: remark: other sources report otherwise.

B1: Sun2, Q9UH99 1-717 (natural protein)
chain: MSRRSQRLTRYSQGDDDGSSSSGGSSVAGSQSTLFKDSPLRTLKRKSSNMKRLSPAPQLGPSSDAHTSYYSESLVHESWFPPRSSLEELHGDANWGEDLRVRRRRGTGGSESSRASGLVGRKATEDFLGSSSGYSSEDDYVGYSDVDQQSSSSRLRSAVSRAGSLLWMVATSPGRLFRLLYWWAGTTWYRLTTAASLLDVFVLTRRFSSLKTFLWFLLPLLLLTCLTYGAWYFYPYGLQTFHPALVSWWAAKDSRRPDEGWEARDSSPHFQAEQRVMSRVHSLERRLEALAAEFSSNWQKEAMRLERLELRQGAPGQGGGGGLSHEDTLALLEGLVSRREAALKEDFRRETAARIQEELSALRAEHQQDSEDLFKKIVRASQESEARIQQLKSEWQSMTQESFQESSVKELRRLEDQLAGLQQELAALALKQSSVAEEVGLLPQQIQAVRDDVESQFPAWISQFLARGGGGRVGLLQREEMQAQLRELESKILTHVAEMQGKSAREAAASLSLTLQKEGVIGVTEEQVHHIVKQALQRYSEDRIGLADYALESGGASVISTRCSETYETKTALLSLFGIPLWYHSQSPRVILQPDVHPGNCWAFQGPQGFAVVRLSARIRPTAVTLEHVPKALSPNSTISSAPKDFAIFGFDEDLQQEGTLLGKFTYDQDGEPIQTFHFQAPTMATYQVVELRILTNWGHPEYTCIYRFRVHGEPAH
Consider B1, for which the stoichiometry N (usually a count of units in the complex or per binding partner) worked out at 3.
